Earlier results in article PMC3334866.

Target: Vinculin D1 (UniProt P18206)
Sequence of UniProt P18206 (P18206 1-258): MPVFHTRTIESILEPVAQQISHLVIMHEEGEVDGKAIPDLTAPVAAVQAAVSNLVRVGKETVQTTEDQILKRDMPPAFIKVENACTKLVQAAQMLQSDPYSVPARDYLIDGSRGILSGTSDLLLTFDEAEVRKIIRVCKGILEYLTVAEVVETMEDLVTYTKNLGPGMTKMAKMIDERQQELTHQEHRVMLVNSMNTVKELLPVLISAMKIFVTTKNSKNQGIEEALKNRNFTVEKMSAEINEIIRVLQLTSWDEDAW

IpaA peptide (from UniProt P18010)
Kd: < 1 nM
